Laboratory results reported in patent publication US20070224188A1.

Biological target: biotin-labeled soluble FcRn
Assay: FcRn ELISA pH 6.0

| Substance | FcRn6.0 (% of wild type) | FcRn pH6.0 (% of wild type) |
| --- | --- | --- |
| anti-CD20 IgG1 247L251F330R332E (antibody) | 50 | – |
| anti-CD20 IgG1 247L251F376I (antibody) | 61 | – |
| anti-CD20 IgG1 247L332E376I (antibody) | 74 | – |
| anti-CD20 IgG1 247L332E (antibody) | 78 | – |
| anti-CD20 IgG1 251F332E376I (antibody) | 68 | – |
| anti-CD20 IgG1 251F332E (antibody) | 72 | – |
| anti-CD20 IgG1 251F376I (antibody) | 66 | – |
| anti-CD20 IgG1 256P311I (antibody) | 268 | – |
| anti-CD20 IgG1 256P314Y332E440Y (antibody) | 86 | – |
| anti-CD20 IgG1 256P314Y440Y (antibody) | 79 | – |
| anti-CD20 IgG1 256P332E440Y (antibody) | 117 | – |
| anti-CD20 IgG1 256P332E (antibody) | 121 | – |
| anti-CD20 IgG1 256P430Q (antibody) | 150 | – |
| anti-CD20 IgG1 256P434H (antibody) | 342 | – |
| anti-CD20 IgG1 256P440Y (antibody) | 122 | – |
| anti-CD20 IgG1 257I311I434H (antibody) | 553 | – |
| anti-CD20 IgG1 257I311I (antibody) | 409 | – |
| anti-CD20 IgG1 257I430Q (antibody) | 304 | – |
| anti-CD20 IgG1 257I434H (antibody) | 472 | – |
| anti-CD20 IgG1 258D272R (antibody) | 383 | – |
| anti-CD20 IgG1 258D283R (antibody) | 411 | – |
| anti-CD20 IgG1 258D286F (antibody) | 445 | – |
| anti-CD20 IgG1 258D307E (antibody) | 237 | – |
| anti-CD20 IgG1 258D311I (antibody) | 522 | – |
| anti-CD20 IgG1 258D376V (antibody) | 415 | – |

| Substance | FcRn6.0 (% of wild type) | FcRn pH6.0 (% of wild type) |
| --- | --- | --- |
| anti-CD20 IgG1 268D332E (antibody) | 92 | – |
| anti-CD20 IgG1 268E332E (antibody) | 88 | – |
| anti-CD20 IgG1 272R279L (antibody) | 156 | – |
| anti-CD20 IgG1 272R283R (antibody) | 439 | – |
| anti-CD20 IgG1 272R286F (antibody) | 338 | – |
| anti-CD20 IgG1 272R311I (antibody) | 396 | – |
| anti-CD20 IgG1 272R376V (antibody) | 369 | – |
| anti-CD20 IgG1 279D307E (antibody) | 522 | – |
| anti-CD20 IgG1 283R307E (antibody) | 400 | – |
| anti-CD20 IgG1 283R311I (antibody) | 531 | – |
| anti-CD20 IgG1 283R376V (antibody) | 475 | – |
| anti-CD20 IgG1 286F307E (antibody) | 431 | – |
| anti-CD20 IgG1 286F311I (antibody) | 412 | – |
| anti-CD20 IgG1 286F376V (antibody) | 349 | – |
| anti-CD20 IgG1 307E376V (antibody) | 480 | – |
| anti-CD20 IgG1 311I376V (antibody) | 414 | – |
| anti-CD20 IgG1 314Y332E440Y (antibody) | 82 | – |
| anti-CD20 IgG1 314Y440Y (antibody) | 78 | – |
| anti-CD20 IgG1 330K332D (antibody) | 88 | – |
| anti-CD20 IgG1 330K332E (antibody) | 94 | – |
| anti-CD20 IgG1 330R332D (antibody) | 88 | – |
| anti-CD20 IgG1 330R332E (antibody) | 94 | – |
| anti-CD20 IgG1 332E376I (antibody) | 102 | – |
| anti-CD20 IgG1 332E376V (antibody) | 132 | – |
| anti-CD20 IgG1 332E440Y (antibody) | 94 | – |

| Substance | FcRn6.0 (% of wild type) | FcRn pH6.0 (% of wild type) |
| --- | --- | --- |
| anti-CD20 IgG1 343R345D (antibody) | 143 | – |
| anti-CD20 IgG1 376V430Q (antibody) | 212 | – |
| anti-CD20 IgG1 376V430R (antibody) | 188 | – |
| anti-CD20 IgG1 376V434H (antibody) | 382 | – |
| anti-CD20 IgG1 A327T (antibody) | – | 54 |
| anti-CD20 IgG1 A330K (antibody) | – | 108 |
| anti-CD20 IgG1 A330R (antibody) | – | 121 |
| anti-CD20 IgG1 A339D (antibody) | – | 80 |
| anti-CD20 IgG1 A339E (antibody) | – | 75 |
| anti-CD20 IgG1 A339F (antibody) | – | 120 |
| anti-CD20 IgG1 A339G (antibody) | – | 67 |
| anti-CD20 IgG1 A339H (antibody) | – | 107 |
| anti-CD20 IgG1 A339I (antibody) | – | 80 |
| anti-CD20 IgG1 A339K (antibody) | – | 83 |
| anti-CD20 IgG1 A339L (antibody) | – | 83 |
| anti-CD20 IgG1 A339M (antibody) | – | 111 |
| anti-CD20 IgG1 A339N (antibody) | – | 146 |
| anti-CD20 IgG1 A339Q (antibody) | – | 102 |
| anti-CD20 IgG1 A339R (antibody) | – | 82 |
| anti-CD20 IgG1 A339S (antibody) | – | 95 |
| anti-CD20 IgG1 A339T (antibody) | – | 138 |
| anti-CD20 IgG1 A339W (antibody) | – | 156 |
| anti-CD20 IgG1 A339Y (antibody) | – | 92 |
| anti-CD20 IgG1 A378D (antibody) | – | 163 |
| anti-CD20 IgG1 A378N (antibody) | – | 180 |

| Substance | FcRn6.0 (% of wild type) | FcRn pH6.0 (% of wild type) |
| --- | --- | --- |
| anti-CD20 IgG1 A431H (antibody) | – | 151 |
| anti-CD20 IgG1 A431K (antibody) | – | 176 |
| anti-CD20 IgG1 A431P (antibody) | – | 29 |
| anti-CD20 IgG1 D249E (antibody) | – | 78 |
| anti-CD20 IgG1 D249L (antibody) | – | 15 |
| anti-CD20 IgG1 D249M (antibody) | – | 50 |
| anti-CD20 IgG1 D249N (antibody) | – | 112 |
| anti-CD20 IgG1 D249P (antibody) | – | 138 |
| anti-CD20 IgG1 D249Y (antibody) | – | 41 |
| anti-CD20 IgG1 D265H (antibody) | – | 79 |
| anti-CD20 IgG1 D265K (antibody) | – | 107 |
| anti-CD20 IgG1 D265S (antibody) | – | 66 |
| anti-CD20 IgG1 D265Y (antibody) | – | 33 |
| anti-CD20 IgG1 D270A (antibody) | – | 87 |
| anti-CD20 IgG1 D270G (antibody) | – | 108 |
| anti-CD20 IgG1 D270K (antibody) | – | 122 |
| anti-CD20 IgG1 D270M (antibody) | – | 81 |
| anti-CD20 IgG1 D270N (antibody) | – | 94 |
| anti-CD20 IgG1 D280A (antibody) | – | 55 |
| anti-CD20 IgG1 D280K (antibody) | – | 120 |
| anti-CD20 IgG1 D280T (antibody) | – | 60 |
| anti-CD20 IgG1 D312P (antibody) | – | 546 |
| anti-CD20 IgG1 D376A (antibody) | – | 155 |
| anti-CD20 IgG1 D376E (antibody) | – | 82 |
| anti-CD20 IgG1 D376F (antibody) | – | 116 |

| Substance | FcRn6.0 (% of wild type) | FcRn pH6.0 (% of wild type) |
| --- | --- | --- |
| anti-CD20 IgG1 D376G (antibody) | – | 135 |
| anti-CD20 IgG1 D376H (antibody) | – | 81 |
| anti-CD20 IgG1 D376I (antibody) | – | 144 |
| anti-CD20 IgG1 D376L (antibody) | – | 78 |
| anti-CD20 IgG1 D376M (antibody) | – | 129 |
| anti-CD20 IgG1 D376N (antibody) | – | 94 |
| anti-CD20 IgG1 D376P (antibody) | – | 203 |
| anti-CD20 IgG1 D376Q (antibody) | – | 116 |
| anti-CD20 IgG1 D376R (antibody) | – | 103 |
| anti-CD20 IgG1 D376S (antibody) | – | 134 |
| anti-CD20 IgG1 D376T (antibody) | – | 160 |
| anti-CD20 IgG1 D376V (antibody) | – | 251 |
| anti-CD20 IgG1 D376W (antibody) | – | 1 |
| anti-CD20 IgG1 D376Y (antibody) | – | 53 |
| anti-CD20 IgG1 E258D (antibody) | – | 361 |
| anti-CD20 IgG1 E269N (antibody) | – | 92 |
| anti-CD20 IgG1 E269Q (antibody) | – | 98 |
| anti-CD20 IgG1 E272H (antibody) | – | 157 |
| anti-CD20 IgG1 E272K (antibody) | – | 320 |
| anti-CD20 IgG1 E272L (antibody) | – | 129 |
| anti-CD20 IgG1 E272N (antibody) | – | 110 |
| anti-CD20 IgG1 E272R (antibody) | – | 351 |
| anti-CD20 IgG1 E283A (antibody) | – | 126 |
| anti-CD20 IgG1 E283D (antibody) | – | 110 |
| anti-CD20 IgG1 E283F (antibody) | – | 168 |
